Reference: patent US10513545B2, “Fusion polypeptide in which anti-inflammatory polypeptide and ferritin monomer fragment are bound and pharmaceutical composition for preventing and treating inflammatory diseases, containing same as active ingredient” (KYUNGPOOK NATIONAL UNIVERSITY INDUSTRY-ACADEMIC COOPERATION …, priority 2015, dated 2019)

How the values were obtained:
soluble EPCR (sEPCR) = molecular target: T1, soluble EPCR (sEPCR) (Homo sapiens, UniProt Q9UNN8); test: solid-phase ELISA for binding affinity to soluble EPCR; details: FIG. 9, read-out: Kd(app) for the interaction with sEPCR
T1 construct: 96-well flat microtiter plates were coated with soluble EPCR
T1 sequence (Q9UNN8 18-210 limits assumed): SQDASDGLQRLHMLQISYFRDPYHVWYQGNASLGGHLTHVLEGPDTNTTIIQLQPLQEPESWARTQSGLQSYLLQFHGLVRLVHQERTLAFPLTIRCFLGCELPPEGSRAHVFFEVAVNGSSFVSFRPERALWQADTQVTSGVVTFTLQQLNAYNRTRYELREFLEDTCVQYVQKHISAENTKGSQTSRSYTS
Description: 9. Enzyme-Linked Immunosorbent Assays (ELISA) for Evaluating EPCR (Endothelial Protein C Receptor) Binding Affinity
To evaluate the interaction of the wild-type PC, PC-Gla peptides, TFG, and TFMG with EPCR, 96-well flat microtiter plates were coated with soluble EPCR in 20 mM carbonate-bicarbonate buffer (pH 9.6) containing 0.02% sodium azide, overnight at 4° C. After the plates were washed three times in TBS buffer (0.1 M NaCl, 0.02 M Tris-HCl, pH 7.4) containing 0.05% Tween 20, the plates were incubated with wild-type PC, PC-Gla peptides, TFG, and TFMG (7-1000 nM) diluted in the buffer for 1 h. After the plates were rinsed again, they were incubated with a goat anti-protein C polyclonal antibody (1:1000) for 1 h. Then, the plates were washed and incubated with rabbit anti-goat IgG (KPL, MD, 1:1000) for 1 h. After washing, the plates were incubated with 2,2′-azino-di(3-ethylbenzthiazoline-6-sulfonate) (ABTS; KPL, Gaithersburg, Md.). Colorimetric analysis was performed by measuring absorbance values at 405 nm.

MMP-2 = molecular target: T2, MMP-2 (Homo sapiens, UniProt P08253); test: cleavage of nanocaged TFMG by activated MMP-2; type: biochemical; details: p-aminophenylmercuric acetate-activated MMP-2, FIG. 6-8
T2 sequence (P08253 110-660): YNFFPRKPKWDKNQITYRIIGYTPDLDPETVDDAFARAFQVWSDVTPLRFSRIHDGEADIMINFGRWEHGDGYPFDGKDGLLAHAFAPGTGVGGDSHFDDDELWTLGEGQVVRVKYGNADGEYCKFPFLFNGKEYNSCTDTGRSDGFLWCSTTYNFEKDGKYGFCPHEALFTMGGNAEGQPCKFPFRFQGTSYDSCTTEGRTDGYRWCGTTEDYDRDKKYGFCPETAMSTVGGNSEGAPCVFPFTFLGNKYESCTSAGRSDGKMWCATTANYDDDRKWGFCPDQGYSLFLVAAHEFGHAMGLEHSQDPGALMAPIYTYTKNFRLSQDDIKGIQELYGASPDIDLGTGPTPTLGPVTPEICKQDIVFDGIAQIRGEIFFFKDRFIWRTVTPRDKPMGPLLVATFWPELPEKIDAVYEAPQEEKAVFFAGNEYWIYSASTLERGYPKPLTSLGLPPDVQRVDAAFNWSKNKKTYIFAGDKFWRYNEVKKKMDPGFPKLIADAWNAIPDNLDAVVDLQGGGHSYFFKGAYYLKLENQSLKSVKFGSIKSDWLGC
Description: To evaluate whether TFMG could be selectively cleaved by MMP2, TFMG was incubated with APMA-mediated activated MMP-2 in PBS at 37° C. for 3 h. The cleaved fragments of TFMG were detected by MALDI-ToF.

[1] = tested on: LPS-stimulated HUVEC cells; test: cell-cell adhesion assay (leukocytes to HUVEC monolayers); type: cell-based, human; details: HUVECs, LPS 100 ng/mL 4 h, FIG. 21B
Description: Adherence of monocytes to endothelial cells was evaluated by fluorescent labeling of monocytes, as previously described. Briefly, monocytes were labeled with 5 μM Vybrant DiD for 20 min at 37° C. in phenol red-free RPMI containing 5% FBS. After washing, the cells (1.5×10^6 cells/mL, 200 μL/well) were resuspended in adhesion medium (RPMI containing 2% fetal bovine serum and 20 mM HEPES). The cells were then added to confluent monolayers of HUVECs in 96-well plates. Prior to the addition of cells, HUVECs were treated PC-Gla with TRAP, TFG, or TFMG for 6 h, followed by treatment with LPS (100 ng/mL, 4 h). Quantification of cell adhesion was determined as previously described.

EPCR = molecular target: T3, EPCR (Mus musculus, UniProt Q64695); test: histological analysis of EPCR binding in vivo (mouse vena cava); details: injected intravenously, FIG. 11
T3 construct: from tissue; host or cells: mouse vena cava
T3 sequence (Q64695 18-242): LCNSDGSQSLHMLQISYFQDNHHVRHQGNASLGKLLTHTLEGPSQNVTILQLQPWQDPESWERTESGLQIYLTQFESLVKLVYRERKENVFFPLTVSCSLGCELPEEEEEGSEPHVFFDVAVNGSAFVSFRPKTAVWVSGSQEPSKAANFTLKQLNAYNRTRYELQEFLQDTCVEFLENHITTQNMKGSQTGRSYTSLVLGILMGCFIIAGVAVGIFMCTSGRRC
Description: Twenty-four hours prior to CLP surgery, fluorescence labeled-PC-Gla, TFG, and TFMG (200 nM/mouse) was intravenously injected into the mice, respectively. After 24 h, mouse vena cava was enucleated and fixed in visikol for 24 h. Subsequently, vena cava was embedded in optimum cutting temperature (OCT) compound (Tissue Tek) at −80° C. Consecutive sections were incubated with anti-EPCR antibody (Santa Cruz, Calif.), anti-rabbit Alexa 488 (green), anti-CD31 antibody, and anti-rabbit Alexa 350 (blue), and observed by confocal microscopy at 63× magnification (TCS-SP5, Leica microsystem, Germany).

[2] = tested on: LPS-stimulated HUVEC cells; test: in vitro permeability assay (Evans blue-bound albumin flux); type: cell-based, human; details: HUVECs, LPS 100 ng/mL 4 h, up to 100 nM, FIG. 19
Description: For spectrophotometric quantification of endothelial cell permeabilities in response to increasing concentrations of each molecule, the flux of Evans blue-bound albumin across functional cell monolayers was measured using a modified 2-compartment chamber model, as previously described. HUVECs were plated (5×10^4/well) in 12-mm diameter Transwells with a pore size of 3 μm for 3 days. Confluent monolayers of HUVECs were exposed to LPS (100 ng/mL) for 4 h before being subjected to PC-Gla with TRAP, TFG, or TFMG (up to 100 nM). Transwell inserts were then washed with TBS (pH 7.4), followed by the addition of Evans blue (0.5 mL; 0.67 mg/mL) diluted in a growth medium containing 4% BSA. Fresh growth medium was then added to the lower chamber, and the medium in the upper chamber was replaced with Evans blue/BSA. Ten minutes later, the optical density of the sample in the lower chamber was measured at 650 nm.

B1: TFMG: as TFG with an MMP-2 cleavable linker (GPLGLAG) between ferritin fragment C-terminus and PC-Gla (apparently SEQ ID NO: 15) (protein)
chain: MGGTTFLLRNASGHMSSQIRQNYSTDVEAAVNSLVNLYLQASYTYLSLGFYFDRDDVALEGVSHFFRELAEEKREGYERLLKMQNQRGGRIFLQDIKKPAEDEWGKTPDAMKAAMALEKKLNQALLDLHALGSARTDPHLCDFLETHFLDEEVKLIKKMGDHLTNLHRLGGGSEFVDGGGSGTSGPLGLAGANSFLEELRHSSLERECIEEICDFEEAKEIFQNVDDTLAFWSKHVLEHHHHHH
modifications: Fusion polypeptide (2)
For B1, the Kd (soluble EPCR (sEPCR)) was 307 nM, the “release of PC-Gla by linker cleavage with MMP-2” value (MMP-2) was “continuously released PC-Gla” and the adhesion of leukocytes [1] was “inhibited”. The “in vivo binding by immunohistochemistry” value (EPCR) was “colocalized with EPCR and CD31” and the “in vitro endothelial cell permeability” value [2] was “alleviated”.

B2: TFG: fusion polypeptide: TRAP at N-terminus and PC-Gla at C-terminus of short ferritin monomer fragment, forms nanocage (apparently SEQ ID NO: 14) (protein)
chain: MGGTTFLLRNASGHMSSQIRQNYSTDVEAAVNSLVNLYLQASYTYLSLGFYFDRDDVALEGVSHFFRELAEEKREGYERLLKMQNQRGGRIFLQDIKKPAEDEWGKTPDAMKAAMALEKKLNQALLDLHALGSARTDPHLCDFLETHFLDEEVKLIKKMGDHLTNLHRLGGGSEFVDGGGSGTSANSFLEELRHSSLERECIEEICDFEEAKEIFQNVDDTLAFWSKHVLEHHHHHH
modifications: Fusion polypeptide (1)
In the case of B2, the adhesion of leukocytes [1] is reported as “inhibited”, the “in vivo binding by immunohistochemistry” value (EPCR) is reported as “colocalized with EPCR and CD31” and the “in vitro endothelial cell permeability” value [2] is reported as “alleviated”.
